The target in data set [1] is T1, Strep-HP1021 (orphan response regulator) (Helicobacter pylori 26695) (UniProt O25665).
T1 sequence: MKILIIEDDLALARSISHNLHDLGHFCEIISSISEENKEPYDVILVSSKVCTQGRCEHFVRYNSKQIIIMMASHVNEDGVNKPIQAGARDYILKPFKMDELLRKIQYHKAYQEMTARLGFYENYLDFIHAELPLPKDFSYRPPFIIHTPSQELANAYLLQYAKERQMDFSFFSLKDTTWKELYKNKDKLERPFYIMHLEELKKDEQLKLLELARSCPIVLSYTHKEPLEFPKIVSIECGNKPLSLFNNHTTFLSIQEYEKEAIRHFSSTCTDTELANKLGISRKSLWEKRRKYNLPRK
Kind of data set: EMSA. As to conditions: EMSA: 50 mM Tris-Cl, 250 mM KCl, 5 mM DTT, pH 7.0, 100 ng/uL sheared salmon sperm DNA, 37 C 30 min, 20 uL, 4% native PAGE, footprinting: 37 C 30 min.

The target in data set [2] is T1, Strep-HP1021 (orphan response regulator) (Helicobacter pylori 26695). Briefly: competition. As to conditions: EMSA: 50 mM Tris-Cl, 250 mM KCl, 5 mM DTT, pH 7.0, 100 ng/uL sheared salmon sperm DNA, 37 C 30 min, 20 uL, 4% native PAGE, footprinting: 37 C 30 min.

This passage reports binding results from article PMC9010608.

Consider “CCATTATCACTCCAATTTTAATTCTCATTTTTTTGCGAGTTTTTGATCTTTATAAATTCTAAAGGGGTATTAAACGCACTTCTAATAACGATTTTATAGCGCTTCAAAGATATAACACTAATTCATTTTAAATAATAATTAGTTAATGAACGCTTCCAGCCGGCTTCGTCAGTCGAAACATGTACGTGATTACATCCAACCTTGATTTCGTTATGTCTTCAAGGAAAAACACTTTAAGAATAGGAGAATAAG (double strand) [PureAmt (mutated ureAB promoter probe)]”, for which, in data set [1], the binding result is reported as “no binding”.

Consider “CCATTATCACTCCAATTTTAATTCTCATTTTTTTGCGAGTTTTTGATCTTTATAAATTCTAAAGGGGTATTAAACGCACTTCTAATAACGATTTTATAGCGCTTCAAAGATATAACACTAATTCATTTTAAATAATAATTAGTTAATGAACGCTTCTGTTAATCTTAGTAAATCAAAACATTGCTACAATTACATCCAACCTTGATTTCGTTATGTCTTCAAGGAAAAACACTTTAAGAATAGGAGAATAAG (double strand) [PureA cold probe (unlabeled)]”, for which, in data set [2], the binding result is “binds”. For “CCATTATCACTCCAATTTTAATTCTCATTTTTTTGCGAGTTTTTGATCTTTATAAATTCTAAAGGGGTATTAAACGCACTTCTAATAACGATTTTATAGCGCTTCAAAGATATAACACTAATTCATTTTAAATAATAATTAGTTAATGAACGCTTCTGTTAATCTTAGTAAATCAAAACATTGCTACAATTACATCCAACCTTGATTTCGTTATGTCTTCAAGGAAAAACACTTTAAGAATAGGAGAATAAG (double strand) [PureA (ureAB promoter, AF700 probe)]”, the binding result in data set [1] is given as “binds”.
